# Source: a protein production outcome set (Wang et al. 2014)
# Experiment: label from the status in PepcDB records
row,Sequence,protein production
1,MSSPSRTVTLPDIMCPKCIKCGSERTHHSRVRPSERTLSMLFLRPIRCRQCKERFWVKNSNAFLALGGVLFIGALLITTVWLIIEHNMADPYAGSAPEIGTEDPADSVARGTSKSQNGQEALSAPAPGTRGTHDVTQSPGSIPSSAPARNPLEDHRFTVRLYQEAANNGDADSQYKLGLLYLTGNGALQDFAEAAKWLQLAAEQGYGPAQYELGLIYRNGYGLPTDHVQSYVWLNLAAAAGVQQAMGARDEVMRALSSKQLAQAQKISREWLAARTGPESGKEADRVESAHPRRK,failed
2,MSSRNTLGNDEPMNQEKEGVESKDTPRTETKGVEKKHSVLVKQDWLPSDYAQYVDEKILNIGFEPDTFQRQAFYLLSRASSVFVSAHTSSGKTLVAEYAISLSQIHGTRTIYTSPIKALSNQKYHDFKQKYDDVGIITGDVQVNPAAKCLVMTTEILRNLVYRNGDLLRDTEFVVFDEVHYINDSERGVVWEECIIMIPRHINFIMLSATIPNSLEFSEWVGRTKDKTIYVISTSKRAVPLEHVIYCDWCVYSIDDGGGKRNASNFKGDLVPFSKKTRPTGKFKILDVANFVVKKKLTPAIFFCFSKRKCEDYAEILRTLNLNDTKSREEVKLFLSEATRCLSPEDRNLPQVLSMSSMVLNGVAVHHGSLLPFVKECVELLFSMNLVKLLIATETFAMGVNMPAKCCVFLSLSKIDGGVFRYISSGEYIQMSGRAGRRGMDAVGTVMIADPKMPSLSTIQGIIHGTPFSLSSQFRLSFGLILISLRSNIRVEDLMRRSYGEHRSQRNYERDMKKLSELESVEEDVCNVCGDLSKYIGAVEEICARNWKLIAKHHVLKEGSRVLLKNNAVGTVERVSGATVFLKQKDEALDNGTPIPTKFLAYPLGTRKPLDRSKVTFENIFCVLDGEKALWNYETANVMDVLEIRKIKSLYDYLLSEQQVCREFDQHYSNALRVHCKRKEMNDIKIRYNVCSLGMIDEYNRRMEFLKKKGFVEEMITIKGRAAAEIHTVNEVLVVEMIFSNEFRQMDGRKIVSLMSSMIHEEADGQELGKALYDECKRMDECFRELSRDLDELMIPPFTPLNFSLVDAVYDWCNGSSLGKIVSRYNVLEGTFVRLVLRLEECCRELISVSTMIGDKSLEEKIGDASASMKRDIIFLPSLYL,failed
3,MSSRSHARPEAVTRIASLAECGETVACMACARYPSCLAHLRLRMKRHFSMLRDFQLADWFTLANAFCGTGAVFAAMRFLQEEHRGDLLLGMALIPLAFVFDALDGHVARWRKASSTLGRELDSLADVISFGVAPAALGYACGMRGGWDWLVLSYFVCCGVSRLARYNVTAEEIAGEADKVPYFEGTPIPTSLLLVILLAVAASIGHIGETLWWGQWQLGPWQFHPLVLLFAVSGSLMISKTLRIPKL,failed
4,MSSSHLAERHAFSDLSLLSEALAQSVTVTLRNAIERYGKASLVVPGGHTPVVYLPRLAQMDLPWQQVFITLSDERWVEPTSEQSNERLVREHFLQHMQQQPHFIALKTGHIHPDQAITDIDARLAELPQPFSLVILGLGEDGHIASLFPGMALNPDTTSLCQTATPPAAPSLRISLSLHALINSDRIILVITGKEKRQLIDRLIESPDQNIPFVRLMQFKPVELFETD,not failed
5,MSSSLMTSSGFRFLFPIALLGMVSVGMGNIIQMTQSNWGIAANLPYILLGCALVLCYSFKQGRESMVCLSMLVAYFVIQHRLQVPLNSGTALLELTILATLLPVSFLTVFLFNKDGFDSKAMFIYVLMLVMFILWSYIILAYYVDGGFEQWTSGILFIVPSVSKLPFILVLYCVGIVCFLGILLLKTNKIIHAMTYSAMALASATFIFFDVQYISSTMFTLTGLLIIIYSTSASHQLAFTDSLTQIPSRRALDLDLKHMGRKFTIAMLDVDHFKKFNDTYGHDIGDDVLKMVASRLMKTRGGAKVYRFGGEEFTMVFKGKNVEDCRQYIEEARKAIAEYEMILRDKASRPDDHKQGQQNRGTEDMQRESVFVTASFGAADSRNGREPAEVIKLADAALYKAKKAGRNCTRVNQN,failed
6,MSSTALEMASRFVNRSPFNRWLGMSVLEAGEQGIVLGIKWREELISSPEIRSTHGGILATLVDAAGDYAVALKTGHPVPTMDMHVDYHRVATPGDLRAEGQVIHFGKRFATAHARVLDMDGNLVASGRALYLIRAPQPGAAQGAA,failed
7,MSSTKRQKNRVLVKLKKRKVRKDKIEKWAELALSALGLNNVELSVYITDDQEIRELNKTYRKKDKPTDVLSFPMGEEFGGYKILGDVVISQDTAERQARELGHSLEEEVKRLIVHGIVHLLGYDHEKGGEEEKKFRELENYVLSKLSKAL,not failed
8,MSSTLRFHVLGRGAALPRAVAPYFVLRTDNWDDFGHRVQFHLILIVSGAPEKRIGSLKVLQRTSDKGEAMMVATDTELPSKFVELDDTFVSLGQDDDFYKKLHEALGDRAGEVLDALRDIAWRPAFASDFEPTPAFRNAMMRENGAQRARRFGRAWALGEQITERPAFDYVGTIEGADIKVEGEFDFSATDPVPGRIVGLIGRNAVGKTRYLASLGSDLAQISRRSAEALEAREARFPGGRPLFTRIIAISYSAFDRFKRPPMDSSSSYVYCGIRNDRGGLSRSALIDRYRLNQVRIRERGEQRSWMRHMKTILGDQGAQLTASLEEEIRSDSTDDSALSSLSSGQSILAHFVTALLAWIQPNSLVLFDEPETHLHPNAVASLFLVLSQVLQEFDSYAVIATHSPVVIQEIPAKRVLVFRREGNVTIAEPLLLESFGESVTELTRHVFETGEVESLYKRTLRELAAEDTVEDVLARFELGLSLSAQAYLLAQYSKKAGGRTLEHHHHHH,failed
9,MSSTLWIFYDQYVQRATVDGLPTFIGPGEQATLRISSLKNDIQVRDQDGQCLIMTDGEELHTLPSGESCELTIDGKPYSFLYVGEAPSEKKYYMGHANLVTISNEPSANIVLPSDIEMDCTLLCERKEWTLYPKEGTQAPYVNGRKVSIPTQIVDGDEMLFGRVLLKIIEGNILVVESNETYETTLTQVETPTSLMQQQYPIYRRTPRMIYEQPTDKVEFSMPSEEIDDVGRPLWMILLPPVAIIVIMVTISIVFQRTWMLFMSVPIMTVMAVVATTMFFREKKKRKQKEEKRKRVYSRYLEVKRDELQALADAQRHALMYHFPTFEQMKNKARRVSSRIWERTIDNNDFLDIRIGRSSVPASFELNQPSDELSNRDRDELMDDFDRFREKYSHLENAPLRLSVARGALGYVGKPSIVEREVSQIIGQLAFAHSYHDLRFVAILNEEQRKKWEWMNWLPHFQLPGTEAKGFIYDEKACDHILNPLYHMLRERDLAQKETVEKKREKKRFLPHIVFFVANRSLIAEHGIMEYLEGKDKELGFTVIFLTDVAQNLNEHVHTIVKAVNRNEGEIVLLRNISIHKRFQFDAYDPASNENYARMLPSLHHQQGMTRSIPDMVSFMEMFPGVIQAKDLEIKKRWQTNDSTKSLAVPIGLKAKDELLELDAHEKMHGPHGLLAGTTGSGKSEFLQTYILSLAVNYHPHEVAFLLIDYKGGGMAQPFKGMPHLLGVITNIAESENFSARALASIRSELKKRQRLFDEHTVNHINDYTELYKAGTAKEPMPHLFIISDEFAELKNEEPEFIKELVSAARIGRSLGVHLLLATQKPSGVVDGQIWSNSRFRIALKVQNATDSREILKNEDAAYIKETGRGYLQIGSNEQYDLFQSAWSGAQYLRSAHDGEEEIAYVTDLGLKLVSRAEIKEDREQESITEIEAVVNEIAATTDELAIVPAKSPWLDPLEERIFYEATSSEDEAQAFPFALADDPENQRQFPICYDWGKSGNLMIFGTSGYGKSTTLLTLLLAFAEKRSPEQANYYVLDFGNGALLPLRQLRHTGDYIKMDEGRKLEKLIDYIEKEMERRSELFMEREVSNISVYNEVSDEPLPSIFIVIDNYDILPEEFSDQAPAFTRFARDGQSRGIYVFATVTARNAVKPVLLNSMNMKICHYMIEKTDLTSLLGRVPFAIESVPGRMIVAKDKNWLAHTYLPAKGENDFEVIENVKARIQTINDRYEDSKLPKSMAMLPKTLTLTGLRERIKEEPRLGIPLGLNEETVQPVYIDQDAGAHMVIAGEPKRGKSNVLKVILSFYFETDVEKIVLCDGVDRPLFDFSRKDKALYPTNAEELQHAVEELKQVMEERRMQYDEALQAGTEIPQFRPYLFVIDSFNEFKKMLGVSKEPAFAEMMQLYGHLEFRVIVAADHKDVSLGRGGVMGELKSARQLVLLVKKSAQSLVSFTHDRTEKLEDGFGYHVVNGRDTKIKIPEVVKEEAFIHS,failed
10,MSSTTNPSTHHTSTIGAIGAPSRRNTELALLVFAVLIPVFAYANVGLAINDEVPAGLLSYGFGLGLLAGVGHLVVRKFAPYADPLLLPLATLLNGLGLVAIWRLDQSDRLQSSKLFVEAAPRQLMYSALGVALFVAVLVFLRDHRVLQRYTYISMAGALVLLLLPLVPGLGHDNFGAKIWIKIPGLGTLQPGEFAKIVLAVFFAGYLMVKRDALALASRRFMGLYLPRGRDLGPIIVVWIISILILVFETDLGTSLLFFGMFVIMLYVATERTSWIVFGLLMSAVGAVGVASFESHVQQRVQAWLDPMHEYELSRQGVFGHTEQSMQALWAFGSGGTLGSGWGQGNSDLIGFAANSDFILATFGEELGLAGLMALLLLYALIVERGVRTALAARDPFGKLLAIGLSGAFALQVFVVAGGVMGLIPLTGMTMPFLAYGGSSVIANWALIGILLRISDTARRPAPAAPANPDAEMTQVVRP,failed
11,MSSVCFSVSREKLSGDIMLEKLNHYRQNLNFPLARPKNSSTQFRFDWVDNLRELQEVQRFRATQFSHQFGIHFDDGLDQDLYDFNCEHAVLREKWTGEIVAYTRLKLFQGHELSQSYSAQEFDIVDKLSYLPNVVEIGRTCVHPKFRSGKALSTLWLNLVPKVLWSMKAKYLMGCVSIHLDDNAARVYHTHQKIQRLSAEQTIDISSKCAYEPTHPQFSFPQDERIPKLFQMYLTMQSKLSKEAFYDEDFNCLDYFVFLEVNKIAKSFVMNKMVQR,failed
12,MSTARPRIITSKAPLLPQQTTPEQRYWRQYTSAQLVKEHNSVTHISFNPQHPHDFAVTSSTRVQIFSSRTRQVIKTFSRFKDVVYSASFRSDGKLLCAGDATGLVSVYDSYNPRTILLSINASTHPTHVTKFHTQDNKILATASDDRVTRLWDISNAYEPQLELTGATDYVRTLSFIPAAPHLVATGSYDGLIRLYDTRSSGSTPIYSLNHDQPVENVIAVSPTQIVSCGGNNFKVWDLTSNKKLYERGNFNKAVTCLDYVENFDSPMQSALIASSLDGHVKVFDPLDNFQVKFGWKFSGPVLSCAVSPSTAQGNRHLVAGLSSGLLAIRTKKKEKRSSDKENAPASFNKNAKSNNFQRMMRGSEYQGDQEHIIHNDKVRSQRRMRAFERNINQFKWSEALDNAFVPGMAKELTLTVLQELRKRGKVRVALYGRDESTLEPLLNWCLKGIEDVRSASIVADWVAVVLELYGNTLESSPVLQELMIDLKTKVRHEIHKSKEAQRIEGMLQLLTS,failed
13,MSTASGITMASMSTYAILGCGSVGHAVAEELVEEGKDVLILDADEGRVEALRDQDLNAQQADICETDVAQTVADRDVVLIMSPDVNANAEAVRNIRESGGEQFIVARADDPVSADDLTELGADVVINPSAVIADSALRALETGELEYKASQLGDVIDGTEERMAILIHRSPDPDSIASAAALRAIAASRDVDADIIYEGEIGHQENRAFVNLLGIELTSNEDVNLDEYDTFALVDVAKGGEPAVESVDIVIDHYEHEHELEHDAAFSDIRPNISATSTILTKYIQELDLNLDQSVATALLYGIRAETLDFKRDTTPADLTAAAYLYPFADHDTLEQVESPSMSPETLDVLAEAIRNREVQGSHLVSNAGFIRDRDALAQAAQHLLNLEGITTTAVFAIADDTIYLAARSKDIRMNIGKVLSDAFGGMGETAGHSTDASVEIPLGIFTGLDTSDDNRDTLLELTEEAVKRKLFEAMGVDSSSSESSNGN,not failed
